Biological target: the molecule itself
Experiment: SEC + other: dynamic light scattering; His-tag Bfr (alone or in ratios with WT Bfr) declustered at pH 2.0, incubated with Pro-Q Sapphire 365 NTA dye and Ni2+, reclustered by dialysis to pH 7.0 (methods: pH 8.0), then size exclusion

B1: His-tagged Escherichia coli bacterioferritin (C-terminal His-tag) (natural protein)
chain: not shown
notes: Escherichia coli bacterioferritin (Bfr) subunit; the gene coding for E. coli Bfr was cloned; also called His-tag Bfr; His-tagged Bfr; source: details in Supplementary Materials; not shown: His6 (after a two amino acid linker Leu-Glu), C-terminal, kept; copies: 24
  stoichiometry N: 24
